To fix the notation:
B1: BJRbL76 (antibody, V domains shown)
VH: QSVEESGGRLVTPGTPLTLTCTVSGFSLSTYAITWVRQAPGKGLEWIGYIWGGGNTDYASWAKGRFTISKTSTTVDLKITSPTIEDTATYFCGRNDLGYGSDIWGPGTLVTVSS
VL: DVVMTQTPSSKSVPVGDTVTINCQASQSVWGNKWLSWYQQKPGQPPKLLIYQASKLASGVPSRFSGSGSGTQFTLTISDVVCDDAATYYCGGHGTGNNDNPLGGGTMVEIKG
notes: also called 兔抗LAM单克隆抗体BJRbL76; LAM抗体
B2: BJRbL20 (antibody, V domains shown)
VH: QSVEESGGRLVTPGGSLTLTCTVSGIDLSSYDMGWVRQAPGKGLEWIGNIWSNGFTDYASWVNGRFTISKSSSTKMDLKMTSLTTEDTATYFCARGSSGYVGDIWGPGTLVTVSS
VL: DPVLTQTASSVSAAVGGTVTINCQASQSVYGNNELSWFQQKPGQPPKLLIYYASTLASGVPSRFKGSGSGTQFTLTISDLECDDAAIYYCQGGYLGNRAFGGGTEVVVKG
notes: also called 兔抗LAM单克隆抗体BJRbL20; LAM抗体
B3: BJRbL52 (antibody, V domains shown)
VH: B2 VH with G15T, I26F, D27S
VL: B2 VL with F38Y, P42S, Y52K, G66A, L95W
notes: also called 兔抗LAM单克隆抗体BJRbL52; LAM抗体

Positions count from the first letter of the chain named.

The target of one assay is T1, 结核分枝杆菌特异性重组蛋白38KD (Mycobacterium tuberculosis, UniProt P9WGU1 24-374).
T1 sequence (looked up): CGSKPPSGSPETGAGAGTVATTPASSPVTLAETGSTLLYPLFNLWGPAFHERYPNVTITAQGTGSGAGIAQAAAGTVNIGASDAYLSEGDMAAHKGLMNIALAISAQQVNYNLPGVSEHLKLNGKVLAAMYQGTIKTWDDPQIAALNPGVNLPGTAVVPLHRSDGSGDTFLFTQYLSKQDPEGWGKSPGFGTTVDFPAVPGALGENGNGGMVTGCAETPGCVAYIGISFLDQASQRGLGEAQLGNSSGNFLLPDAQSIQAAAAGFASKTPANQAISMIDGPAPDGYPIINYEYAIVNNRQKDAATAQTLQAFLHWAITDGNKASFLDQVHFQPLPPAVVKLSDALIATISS
The experiment in a line: indirect ELISA, recombinant protein coated on the plate.
Regarding B1, the binding result is “no binding (tested: protein coated at 5μg/ml)”.
Still for that read-out and setting: the value for B2 was “no binding (tested: protein coated at 5μg/ml)”; that for B3 was “no binding (tested: protein coated at 5μg/ml)”.

In another assay the target is T2, 结核分枝杆菌特异性重组蛋白CFP10 (Mycobacterium tuberculosis, UniProt P9WNK5 1-100).
T2 sequence (looked up): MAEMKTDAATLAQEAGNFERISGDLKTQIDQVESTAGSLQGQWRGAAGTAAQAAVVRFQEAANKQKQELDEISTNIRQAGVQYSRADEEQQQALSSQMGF
The assay is described as above.
With B1, the binding result is reported as “no binding (tested: protein coated at 5μg/ml)”.
Still for that read-out and setting: the value for B2 was “no binding (tested: protein coated at 5μg/ml)”; that for B3 was “no binding (tested: protein coated at 5μg/ml)”.

The target of another assay is 结核分枝杆菌特异性重组蛋白Mtb81 (Mycobacterium tuberculosis, UniProt P9WK17 1-741). Described as above.
Chain of 结核分枝杆菌特异性重组蛋白Mtb81 (P9WK17 whole entry): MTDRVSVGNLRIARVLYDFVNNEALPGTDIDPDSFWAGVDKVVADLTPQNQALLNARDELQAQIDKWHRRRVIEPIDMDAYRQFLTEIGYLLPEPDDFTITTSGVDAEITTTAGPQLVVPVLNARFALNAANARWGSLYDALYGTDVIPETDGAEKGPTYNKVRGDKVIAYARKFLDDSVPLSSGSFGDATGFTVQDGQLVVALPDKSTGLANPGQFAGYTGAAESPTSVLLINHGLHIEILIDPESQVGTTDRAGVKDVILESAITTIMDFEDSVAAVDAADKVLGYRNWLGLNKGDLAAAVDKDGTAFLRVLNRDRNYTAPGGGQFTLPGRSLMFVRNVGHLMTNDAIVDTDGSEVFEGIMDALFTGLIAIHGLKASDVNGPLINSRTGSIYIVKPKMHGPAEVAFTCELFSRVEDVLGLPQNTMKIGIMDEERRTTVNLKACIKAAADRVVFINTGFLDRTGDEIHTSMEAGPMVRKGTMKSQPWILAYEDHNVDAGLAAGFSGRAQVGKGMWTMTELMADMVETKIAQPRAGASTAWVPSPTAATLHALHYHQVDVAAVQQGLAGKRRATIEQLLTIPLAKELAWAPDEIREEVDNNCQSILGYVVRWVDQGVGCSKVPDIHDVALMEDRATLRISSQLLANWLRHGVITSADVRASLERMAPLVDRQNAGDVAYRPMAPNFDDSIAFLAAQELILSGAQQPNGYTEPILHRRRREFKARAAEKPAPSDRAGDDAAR
As for B1, the binding result is on record as “no binding (tested: protein coated at 5μg/ml)”.
In the case of B2, the binding result is given as “no binding (tested: protein coated at 5μg/ml)”.
Take B3: the binding result is “no binding (tested: protein coated at 5μg/ml)”.

The next assay addresses T3, 结核分枝杆菌特异性重组蛋白MPT64 (Mycobacterium tuberculosis, UniProt P9WIN9 24-228).
T3 sequence (looked up): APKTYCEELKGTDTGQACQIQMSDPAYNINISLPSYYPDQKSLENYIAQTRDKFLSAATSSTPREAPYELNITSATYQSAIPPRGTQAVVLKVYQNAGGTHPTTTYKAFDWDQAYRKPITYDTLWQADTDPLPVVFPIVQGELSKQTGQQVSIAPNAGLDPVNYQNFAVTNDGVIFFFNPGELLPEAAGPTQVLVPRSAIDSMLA
The description is as above.
On to B1, for which the binding result is listed as “no binding (tested: protein coated at 5μg/ml)”.
Regarding B2, the binding result is given as “no binding (tested: protein coated at 5μg/ml)”.
Same read-out and setting: as for B3, the entry is “no binding (tested: protein coated at 5μg/ml)”.

In the next assay the target is T4, 结核分枝杆菌特异性重组蛋白EspC (Mycobacterium tuberculosis, UniProt P9WJD7 1-103).
T4 sequence (looked up): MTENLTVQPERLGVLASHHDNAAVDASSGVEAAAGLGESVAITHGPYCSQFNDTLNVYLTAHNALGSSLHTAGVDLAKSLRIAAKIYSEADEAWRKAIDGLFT
The description is as above.
Consider B1, for which the binding result is recorded as “no binding (tested: protein coated at 5μg/ml)”.
As for B2, the binding result is “no binding (tested: protein coated at 5μg/ml)”.
On the same count and under the same terms, as for B3, the entry is “no binding (tested: protein coated at 5μg/ml)”.

The next assay deals with T5, 结核分枝杆菌特异性重组蛋白MPT32 (Mycobacterium tuberculosis, UniProt P9WIR7 40-325).
T5 sequence (looked up): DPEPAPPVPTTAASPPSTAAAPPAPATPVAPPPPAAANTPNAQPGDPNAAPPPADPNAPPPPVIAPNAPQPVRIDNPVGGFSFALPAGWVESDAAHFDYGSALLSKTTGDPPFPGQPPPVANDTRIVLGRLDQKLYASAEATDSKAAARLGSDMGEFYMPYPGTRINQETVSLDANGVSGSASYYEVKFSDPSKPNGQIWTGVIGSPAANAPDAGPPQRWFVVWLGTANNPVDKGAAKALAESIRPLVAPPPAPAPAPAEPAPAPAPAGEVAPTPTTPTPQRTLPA
Described as above.
In the case of B1, the binding result is “no binding (tested: protein coated at 5μg/ml)”.
Consider B2, for which the binding result is reported as “no binding (tested: protein coated at 5μg/ml)”.
On to B3, for which the binding result is reported as “no binding (tested: protein coated at 5μg/ml)”.

(Values after patent CN111234026A (BEIJING CHEST HOSPITAL CAPITAL MEDICAL UNIV; BEIJING …, dated 2020).)
